In series [1] the target is T1, fusion peptide 6-Zif12 (synthetic 15-mer + Zif268, UniProt P08046 P08046:335-391). The experiment in a line: EMSA; similar results to peptides 1, 3, 5. To be noted: tags: N-terminal Met-Ala, leader peptide; chain copies: 2 stated; label: 32P end-label (Klenow). The procedure: (§1) Figure 4B: FIG. 4(A) Sequences of peptide extensions (SEQ ID NOS: 24-29) isolated from the initial selection. Numbers in parentheses give the frequency of occurrences among the 45 clones sequenced. The clones for peptide 2 included a Glu-21-to-Asp mutation in the zinc finger region that may have been partially responsible for the affinity of this peptide. (B) Gel mobility-shift assays using purified fusion peptides 1, 3, and 5. Protein (2.5 µM, 250 nM, 25 nM, 250 pM, and no protein) was incubated with DNA containing either an inverted repeat of Zif12 sites or a single Zif12 site and then electrophoresed through native polyacrylamide gels. The reduced mobility of the inverted repeat probe in the presence of protein indicates the formation of protein-DNA complexes. Similar results were obtained with fusion peptides 2 and 6. Binding of peptide 4 depend on disulfide bond formation.
T1 sequence (P08046 335-391, one chain of several): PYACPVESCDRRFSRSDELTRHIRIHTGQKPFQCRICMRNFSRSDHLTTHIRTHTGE
(§2) To assess their DNA-binding activity, peptides obtained in these initial selections were expressed in *Escherichia coli* (as fusions with Zif12), purified, and tested in gel mobility-shift assays (FIG. 4B). These fusion peptides bound specifically to duplex DNA containing an inverted repeat of the Zif12 sites, showing little or no activity with DNA containing a single site. […]
(A gel shift assay detects complexes by their altered migration in electrophoresis.)

The target in series [2] is T2, fusion peptide 3-Zif12 (synthetic 15-mer + Zif268, UniProt P08046 P08046:335-391). As to the kind of experiment: EMSA; up to 2.5 uM protein. To be noted: tags: N-terminal Met-Ala, leader peptide; chain copies: 2 stated; label: 32P end-label (Klenow). As for the experimental part: as §1
T2 sequence (P08046 335-391, one chain of several): as above
(§3) To assess their DNA-binding activity, peptides obtained in these initial selections were expressed in *Escherichia coli* (as fusions with Zif12), purified, and tested in gel mobility-shift assays (FIG. 4B). These fusion peptides bound specifically to duplex DNA containing an inverted repeat of the Zif12 sites, showing little or no activity with DNA containing a single site. The complexes with the inverted-repeat site all migrated similarly in the gel, with a mobility for the complexes that was consistent with the formation of dimers.

Series [3] concerns the target T3, fusion peptide 1-Zif12 (synthetic 15-mer + Zif268, UniProt P08046 P08046:335-391). As to the kind of experiment: EMSA; up to 2.5 uM protein. To be noted: tags: N-terminal Met-Ala, leader peptide; chain copies: 2 stated; label: 32P end-label (Klenow). The procedure: as §1, §3
The target of series [4] is T4, fusion peptide 5-Zif12 (synthetic 15-mer + Zif268, UniProt P08046 P08046:335-391). The experiment in a line: EMSA; up to 2.5 uM protein. To be noted: tags: N-terminal Met-Ala, leader peptide; chain copies: 2 stated; label: 32P end-label (Klenow). The procedure: as §1, §3
T4 sequence (P08046 335-391, one chain of several): as above
Series [5] has as its target Zif12 (fingers 1-2 of Zif268) (UniProt P08046 P08046:333-390). The experiment in a line: EMSA; no shift under these conditions. To be noted: tags: Gly-Ser dipeptide left at N terminus after GST removal; chain copies: 2 inferred (essentially noncooperative, one per half-site); label: 32P end-label (Klenow). As for the experimental part: as §1, §2
In series [6] the target is T2, fusion peptide 3-Zif12. As to the kind of experiment: EMSA; little or no activity with single site. Particulars: tags: N-terminal Met-Ala, leader peptide; chain copies: 2 stated; label: 32P end-label (Klenow). As for the experimental part: as §1, §3
Series [7] concerns the target T3, fusion peptide 1-Zif12. As to the kind of experiment: EMSA; little or no activity with single site. To be noted: tags: N-terminal Met-Ala, leader peptide; chain copies: 2 stated; label: 32P end-label (Klenow). As for the experimental part: as §1, §3
Series [8] deals with T4, fusion peptide 5-Zif12. As to the kind of experiment: EMSA; little or no activity with single site. Particulars: tags: N-terminal Met-Ala, leader peptide; chain copies: 2 stated; label: 32P end-label (Klenow). As for the experimental part:
as §1, §3

Series [9] concerns the target T1, fusion peptide 6-Zif12. As to the kind of experiment: EMSA; little or no activity with single site. Particulars: tags: N-terminal Met-Ala, leader peptide; chain copies: 2 stated; label: 32P end-label (Klenow). The procedure: as §1, §3

Chain of Zif12 (fingers 1-2 of Zif268) (P08046 333-390, one chain of several): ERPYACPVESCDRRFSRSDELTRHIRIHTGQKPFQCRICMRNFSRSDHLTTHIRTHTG
T3 sequence (P08046 335-391, one chain of several): as the sequence (P08046 335-391, one chain of several) above

B1: phage-selection target duplex, inverted repeat (dsDNA)
DNA 1: GGTTGCAGTGGGCGCGCCCACAGTACTTGAACGTAACG
DNA 2: CGTTACGTTCAAGTACTGTGGGCGCGCCCACTGCAACC
As for B1, the binding result in [1] is on record as “binds”; in series [2] it was “binds”; in series [3], “binds”; in [4] it was “binds”; in series [5], “no binding”.

B2: single Zif12 site mutant duplex (dsDNA)
DNA 1: GGTTGCAGTGGGCGTATGCTCAGTACTTGAACGTAACG
DNA 2: CGTTACGTTCAAGTACTGAGCATACGCCCACTGCAACC
modifications: [none]
With B2, the binding result in [6], in [7], in series [8], in series [9] and in series [5] was “no binding” throughout.

Values taken from patent publication US7943731, “Dimerizing peptides” (Massachusetts Institute of Technology).
